Data reported in the supplement of paper PMC9112550, “Optimization of the antimicrobial peptide Bac7 by deep mutational scanning” (BMC Biology, 2022).

These sequences were tested on Escherichia coli TOP10 (assay: shrunken log2 fold change of peptide-encoding DNA abundance (4.5 h post-induction vs induction); higher = less antimicrobial activity (less host growth inhibition)). Conditions: time post-induction: 4.5 h; library: site-saturation at positions 5, 18, 19, 20.
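Also: peptides expressed intracellularly from a pBAD plasmid library in pooled LB shake-flask culture, induced with 0.3% L-arabinose, DNA abundance read by NGS, three biological replicates, DESeq2 with apeglm shrinkage.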

| Sequence | shrunken log2 fold change |
| --- | --- |
| RRIRQRPPRLPRPRPRPNHRPRP | -0.0657 |
| RRIRNRPPRLPRPRPRPEADPRP | 0.0747 |
| RRIRSRPPRLPRPRPRPKLRPRP | 0.111 |
| RRIRPRPPRLPRPRPRPHWAPRP | -0.0709 |
| RRIRIRPPRLPRPRPRPSVHPRP | -0.278 |
| RRIRYRPPRLPRPRPRPPVQPRP | -0.0548 |
| RRIRPRPPRLPRPRPRPHNGPRP | -0.0321 |
| RRIRIRPPRLPRPRPRPPKAPRP | -0.0729 |
| RRIRWRPPRLPRPRPRPNNVPRP | -0.207 |
| RRIRARPPRLPRPRPRPGQLPRP | 0.359 |
| RRIRNRPPRLPRPRPRPTHKPRP | 0.322 |
| RRIRKRPPRLPRPRPRPAHPPRP | 0.711 |
| RRIRDRPPRLPRPRPRPVFHPRP | -0.707 |
| RRIRPRPPRLPRPRPRPWENPRP | -0.0456 |
| RRIRCRPPRLPRPRPRPGLIPRP | 4.01e-05 |
| RRIRSRPPRLPRPRPRPGICPRP | 0.137 |
| RRIRGRPPRLPRPRPRPSINPRP | -0.0752 |
| RRIRRRPPRLPRPRPRPANPPRP | 0.364 |
| RRIRCRPPRLPRPRPRPFVCPRP | -0.242 |
| RRIRSRPPRLPRPRPRPDTAPRP | -0.0215 |
| RRIRLRPPRLPRPRPRPEFLPRP | -0.108 |
| RRIRYRPPRLPRPRPRPRLEPRP | -0.0441 |
| RRIRMRPPRLPRPRPRPMMWPRP | 0.274 |
| RRIRCRPPRLPRPRPRPMHSPRP | -0.0254 |
| RRIRTRPPRLPRPRPRPKYMPRP | -0.15 |

| Sequence | shrunken log2 fold change |
| --- | --- |
| RRIRMRPPRLPRPRPRPWYHPRP | -0.00277 |
| RRIRTRPPRLPRPRPRPTHQPRP | 0.926 |
| RRIRMRPPRLPRPRPRPPLAPRP | 1.48 |
| RRIRERPPRLPRPRPRPVDEPRP | -0.56 |
| RRIRHRPPRLPRPRPRPKWMPRP | -0.123 |
| RRIRIRPPRLPRPRPRPQVNPRP | -0.444 |
| RRIRMRPPRLPRPRPRPDAPPRP | 3.16 |
| RRIRLRPPRLPRPRPRPNDVPRP | -0.111 |
| RRIRPRPPRLPRPRPRPMQDPRP | 0.0218 |
| RRIRGRPPRLPRPRPRPYFEPRP | -0.123 |
| RRIRSRPPRLPRPRPRPDIPPRP | -0.178 |
| RRIRWRPPRLPRPRPRPYRKPRP | 0.0527 |
| RRIRMRPPRLPRPRPRPPCWPRP | 0.162 |
| RRIRARPPRLPRPRPRPLTGPRP | 0.172 |
| RRIRHRPPRLPRPRPRPARRPRP | 0.143 |
| RRIRDRPPRLPRPRPRPECFPRP | 1.46 |
| RRIRPRPPRLPRPRPRPYKKPRP | -0.574 |
| RRIRGRPPRLPRPRPRPRPDPRP | 0.94 |
| RRIRHRPPRLPRPRPRPVKPPRP | 0.0296 |
| RRIRQRPPRLPRPRPRPGWKPRP | 0.115 |
| RRIRWRPPRLPRPRPRPFYRPRP | -0.179 |
| RRIRTRPPRLPRPRPRPINYPRP | -0.502 |
| RRIRERPPRLPRPRPRPWIMPRP | -0.277 |
| RRIRCRPPRLPRPRPRPPSFPRP | 0.175 |
| RRIRYRPPRLPRPRPRPAVYPRP | -0.0166 |

| Sequence | shrunken log2 fold change |
| --- | --- |
| RRIRCRPPRLPRPRPRPTKGPRP | -0.0938 |
| RRIRLRPPRLPRPRPRPNCQPRP | 0.0269 |
| RRIRYRPPRLPRPRPRPWWDPRP | -0.266 |
| RRIRKRPPRLPRPRPRPPGIPRP | 0.279 |
| RRIRERPPRLPRPRPRPAWRPRP | 0.532 |
| RRIRSRPPRLPRPRPRPKYSPRP | -0.253 |
| RRIRKRPPRLPRPRPRPTLIPRP | -0.0752 |
| RRIRWRPPRLPRPRPRPVQAPRP | 0.36 |
| RRIRKRPPRLPRPRPRPQNVPRP | -0.0694 |
| RRIRNRPPRLPRPRPRPGCPPRP | -0.055 |
| RRIRLRPPRLPRPRPRPWFCPRP | -0.195 |
| RRIRCRPPRLPRPRPRPDQSPRP | 0.112 |
| RRIRMRPPRLPRPRPRPCWAPRP | 0.168 |
| RRIRRRPPRLPRPRPRPWYRPRP | -0.151 |
| RRIRQRPPRLPRPRPRPIICPRP | 0.0208 |
| RRIRDRPPRLPRPRPRPMTSPRP | -0.169 |
| RRIRFRPPRLPRPRPRPPNFPRP | -0.22 |
| RRIRDRPPRLPRPRPRPMHPPRP | -0.0589 |
| RRIRDRPPRLPRPRPRPTYNPRP | -0.365 |
| RRIRWRPPRLPRPRPRPLLFPRP | -0.0366 |
| RRIRHRPPRLPRPRPRPQFYPRP | -0.192 |
| RRIRDRPPRLPRPRPRPSHMPRP | -0.0936 |
| RRIRERPPRLPRPRPRPGCPPRP | 0.0137 |
| RRIRCRPPRLPRPRPRPWVAPRP | -0.0206 |
| RRIRDRPPRLPRPRPRPAQAPRP | -0.0288 |

| Sequence | shrunken log2 fold change |
| --- | --- |
| RRIRERPPRLPRPRPRPFCVPRP | -0.026 |
| RRIRYRPPRLPRPRPRPDFQPRP | -0.409 |
| RRIRPRPPRLPRPRPRPRTQPRP | 0.223 |
| RRIRIRPPRLPRPRPRPMVAPRP | -0.14 |
| RRIRPRPPRLPRPRPRPTLPPRP | 0.309 |
| RRIRIRPPRLPRPRPRPWITPRP | -0.917 |
| RRIRSRPPRLPRPRPRPDNYPRP | -0.303 |
| RRIRNRPPRLPRPRPRPFNAPRP | -0.257 |
| RRIRQRPPRLPRPRPRPDCAPRP | 0.0476 |
| RRIRTRPPRLPRPRPRPLLLPRP | 0.758 |
| RRIRERPPRLPRPRPRPLMFPRP | -0.32 |
| RRIRDRPPRLPRPRPRPDPVPRP | 0.203 |
| RRIRVRPPRLPRPRPRPTHHPRP | 0.586 |
| RRIRFRPPRLPRPRPRPLGNPRP | -0.215 |
| RRIRYRPPRLPRPRPRPPFAPRP | 0.0915 |
| RRIRVRPPRLPRPRPRPVCAPRP | 0.413 |
| RRIRARPPRLPRPRPRPLNDPRP | 0.0895 |
| RRIRARPPRLPRPRPRPQFFPRP | 0.0526 |
| RRIRFRPPRLPRPRPRPYMFPRP | -1.11 |
| RRIRHRPPRLPRPRPRPKMHPRP | -0.0718 |
| RRIRWRPPRLPRPRPRPARNPRP | 0.256 |
| RRIRSRPPRLPRPRPRPPLFPRP | 0.257 |
| RRIRSRPPRLPRPRPRPNWDPRP | -0.315 |
| RRIRGRPPRLPRPRPRPTRKPRP | 1.12 |
| RRIRRRPPRLPRPRPRPINHPRP | -0.273 |

| Sequence | shrunken log2 fold change |
| --- | --- |
| RRIRGRPPRLPRPRPRPFMWPRP | 0.211 |
| RRIRDRPPRLPRPRPRPNAHPRP | -0.0544 |
| RRIRSRPPRLPRPRPRPQPSPRP | 0.296 |
| RRIRHRPPRLPRPRPRPKIIPRP | -1.08 |
| RRIRQRPPRLPRPRPRPQFSPRP | -0.525 |
| RRIRHRPPRLPRPRPRPVPEPRP | 0.143 |
| RRIRFRPPRLPRPRPRPLHAPRP | 0.0292 |
| RRIRWRPPRLPRPRPRPHGKPRP | 0.00196 |
| RRIRARPPRLPRPRPRPFYTPRP | -0.685 |
| RRIRCRPPRLPRPRPRPIHMPRP | 0.109 |
| RRIRDRPPRLPRPRPRPIKMPRP | 0.0713 |
| RRIRHRPPRLPRPRPRPKHIPRP | -0.413 |
| RRIRSRPPRLPRPRPRPHIIPRP | -0.443 |
| RRIRMRPPRLPRPRPRPETPPRP | 3.09 |
| RRIRKRPPRLPRPRPRPREFPRP | 0.607 |
| RRIRPRPPRLPRPRPRPLWKPRP | 0.0546 |
| RRIRFRPPRLPRPRPRPKMMPRP | -0.147 |
| RRIRQRPPRLPRPRPRPADQPRP | 0.012 |
| RRIRQRPPRLPRPRPRPRVAPRP | 0.337 |
| RRIRFRPPRLPRPRPRPEYAPRP | -0.14 |
| RRIRHRPPRLPRPRPRPNIKPRP | -0.69 |
| RRIRHRPPRLPRPRPRPTVIPRP | 0.0211 |
| RRIRDRPPRLPRPRPRPTALPRP | 0.573 |
| RRIRSRPPRLPRPRPRPTPRPRP | 0.843 |
| RRIRERPPRLPRPRPRPVCDPRP | 0.078 |

| Sequence | shrunken log2 fold change |
| --- | --- |
| RRIRERPPRLPRPRPRPYQSPRP | -0.0109 |
| RRIRWRPPRLPRPRPRPQVWPRP | 0.576 |
| RRIRLRPPRLPRPRPRPFSVPRP | -0.323 |
| RRIRIRPPRLPRPRPRPMYYPRP | -0.32 |
| RRIRMRPPRLPRPRPRPQNHPRP | -0.337 |
| RRIRTRPPRLPRPRPRPSCHPRP | -0.783 |
| RRIRNRPPRLPRPRPRPICGPRP | -0.253 |
| RRIRYRPPRLPRPRPRPTWIPRP | -1.08 |
| RRIRNRPPRLPRPRPRPKCEPRP | -0.0549 |
| RRIRHRPPRLPRPRPRPSIKPRP | -0.501 |
| RRIRKRPPRLPRPRPRPMLNPRP | 0.174 |
| RRIRFRPPRLPRPRPRPKDNPRP | -0.000409 |
| RRIRGRPPRLPRPRPRPNVCPRP | -0.237 |
| RRIRLRPPRLPRPRPRPYYKPRP | -0.569 |
| RRIRPRPPRLPRPRPRPLCTPRP | 1.09 |
| RRIRIRPPRLPRPRPRPPTLPRP | -0.431 |
| RRIRIRPPRLPRPRPRPFACPRP | -0.0925 |
| RRIRFRPPRLPRPRPRPNVNPRP | -0.375 |
| RRIRDRPPRLPRPRPRPAHTPRP | 0.0343 |
| RRIRVRPPRLPRPRPRPRVIPRP | -0.0308 |
| RRIRGRPPRLPRPRPRPNDPPRP | -0.0529 |
| RRIRARPPRLPRPRPRPAGWPRP | 1.56 |
| RRIRQRPPRLPRPRPRPKRAPRP | 0.0973 |
| RRIRDRPPRLPRPRPRPCNYPRP | -0.475 |
| RRIRIRPPRLPRPRPRPRCLPRP | -0.228 |
